Data as given in patent US5223421A, “Identification of methionine Nα-acetyltransferase” (The General Hospital Corporation, priority 1990, dated 1993).

Target: T1, yeast methionine acetyltransferase (M-N^α AT) (Saccharomyces cerevisiae, UniProt Q06504)
T1 construct: a crude yeast homogenate from the aaa1 mutant strain; endogenous in cells; host or cells: Saccharomyces cerevisiae strain T3A-a (aaa1), crude lysate
T1 sequence (Q06504 1-195): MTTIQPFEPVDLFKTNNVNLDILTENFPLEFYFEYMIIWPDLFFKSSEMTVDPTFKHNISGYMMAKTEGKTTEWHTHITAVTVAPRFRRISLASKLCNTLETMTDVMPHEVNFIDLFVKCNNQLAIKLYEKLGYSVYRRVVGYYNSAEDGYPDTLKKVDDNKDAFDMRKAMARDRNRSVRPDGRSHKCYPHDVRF
T1 sequence (Q12387 2-796 partner limits assumed): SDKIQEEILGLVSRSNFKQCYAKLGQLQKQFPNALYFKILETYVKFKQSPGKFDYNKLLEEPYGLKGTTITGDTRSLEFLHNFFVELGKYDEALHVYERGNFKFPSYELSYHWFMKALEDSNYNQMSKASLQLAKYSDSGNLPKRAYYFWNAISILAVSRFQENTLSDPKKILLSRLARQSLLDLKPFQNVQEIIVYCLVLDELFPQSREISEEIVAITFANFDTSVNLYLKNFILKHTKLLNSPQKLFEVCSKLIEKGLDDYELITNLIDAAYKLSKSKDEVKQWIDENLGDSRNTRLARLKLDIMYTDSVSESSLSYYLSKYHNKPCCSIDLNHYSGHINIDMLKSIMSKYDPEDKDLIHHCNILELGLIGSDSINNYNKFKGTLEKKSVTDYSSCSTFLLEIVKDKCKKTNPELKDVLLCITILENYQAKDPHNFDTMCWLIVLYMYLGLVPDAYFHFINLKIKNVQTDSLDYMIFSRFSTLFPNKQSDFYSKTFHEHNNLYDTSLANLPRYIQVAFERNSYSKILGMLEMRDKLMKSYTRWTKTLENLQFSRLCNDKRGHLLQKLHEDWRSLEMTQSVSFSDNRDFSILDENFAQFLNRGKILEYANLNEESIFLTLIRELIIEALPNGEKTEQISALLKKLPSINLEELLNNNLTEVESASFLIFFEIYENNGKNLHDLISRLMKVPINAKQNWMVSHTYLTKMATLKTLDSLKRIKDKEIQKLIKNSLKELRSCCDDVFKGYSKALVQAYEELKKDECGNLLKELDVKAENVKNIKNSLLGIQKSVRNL
Assay: Relative activity of yeast methionine acetyltransferase for N^α -acetylation of synthetic peptides (PAI analogues)
Format: biochemical
Parameters: tested at 50 µM
Details: Table 5; mean ± SD (N=3-5); normalized to yeast proteinase A inhibitor 3
Experimental: N^α -acetyltransferase activity was determined as previously described [Lee et al., J. Biol. Chem. 263:14948-14955 (1988)]. Aliquots of the lysate or chromatographic fractions were added to 1.5 ml Eppendorf tubes containing a reaction mixture of 50 mM HEPES, pH 7.4, 150 mM KCl, 1 mM DTT, 25 μM [^3 H] acetyl coenzyme A (0.5 μCi) and 50 μM synthetic peptide with an adjusted final volume of 100 μl. The assay mixture was incubated at 30° C. for 30 min. The reaction was stopped by adding 17 μl of 0.5M acetic acid and chilled in an ice bath. The reaction samples were filtered through SP membrane discs (Cuno) (previously pre-swollen in 0.5M acetic acid), and then washed three times with 1 ml of 0.5M acetic acid on a Millipore 1225 sampling manifold. The partially dried membranes were placed in scintillation cocktail and counted with a Beckman LS 3801 scintillation counter. One unit of activity was defined as the amount of enzyme able to transfer 1 pmol of [^3 H] acetyl group from [^3 H] acetyl coenzyme A to synthetic peptide per min under standard enzyme assay conditions defined above.
Proteinase A inhibitor 3 (PAI) (Tsunasawa et al., Methods Enzymol. 106:165-170 (1984); Wold, F., Trends Biochem Sci. 9:256-267 (1984); Driessen et al., CRC Crit. Rev. Biochem 18:281-325 (1985); Mullen et al., EMBO J. 8:2067-2075 (1989); Lee et al., J. Bacteriol. 171:5795-5802 (1989); Hershko et al., Proc. Natl. Acad. Sci. USA 81:7021-7025 (1984); Bachmair et al., Science 234:179-186 (1986); Arfin et al., Biochemistry 27:7979-7984 (1988); Persson et al., Eur. J. Biochem. 152:523-527 (1985); Huang al., Biochemistry 26:8242-8246 (1987); Lee et al., J. Biol. Chem. 263:14948-14955 (1988); Kamitani et al., J. Biol. Chem. 264:13188-13193 (1989)) is the only known yeast protein which is acetylated at its NH2 -terminal methionine residue (Biedermann et al., Carlsberg Res. Commun. 45:225-235 (1980)). […] The numbers in parentheses refer to the residue numbers, and the letters in parentheses refer to the amino acid sequence Abbreviations are as in FIG. 1. Data are reported as mean activity ±SD (N=3-5) and are normalized to the activity of the homogenate towards yeast proteinase A inhibitor 3. The sequence of this protein is:
Thus, by using PAI, its analogues and other peptides, the structural features of M-N^α AT substrates were studied. […] Only three of nineteen analogues were acetylated, although the efficiency of their acetylation varied from 9-55% (Asp>Glu>Gln). Although it was shown previously that iso-cytochrome c variant proteins (Met-Ile-Arg - - -, Met-Ile-Lys - - -, Met-Met-Asn - - -) can be N^α -acetylated in vivo (Tsunasawa et al., J. Biol. Chem. 260:5382-5391 (1985)), synthetic peptides mimicking the NH2 -terminal 24 amino acid residues of these iso-cytochrome c variants were not acetylated by the yeast M-N^αAT.

Substance: MNTDQQKVSEIFQSSKEKLQGDAK (MNTDQQKVSEIFQSSKEKLQGDAK) [Proteinase A Inhibitor 3 (1-24) (Yeast)]
- Activity (%): 100 ± 5%
